Source: patent US20190241662A1 (ADAGENE, published 2019)

T1: recombinant human CTLA4-Fc (human, UniProt P16410 36-162)
T1 construct: also called human CTLA4 fused with human FC fragment; CTLA4-Fc (Sino Biological, 11159-H03H)
T1 sequence (looked up): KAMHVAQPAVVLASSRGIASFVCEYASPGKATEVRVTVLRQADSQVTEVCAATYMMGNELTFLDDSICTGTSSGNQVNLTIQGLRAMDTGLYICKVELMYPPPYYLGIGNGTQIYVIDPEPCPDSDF


Legend:
[1] = target: T1, recombinant human CTLA4-Fc; assay: BLI Octet, CTLA4-Fc on AHC sensor, Fab 10 ug/mL
Protocol: Proprietary phagemid libraries (see PCT application number PCT/CN2017/098333, incorporated herein by reference in its entirety; see also PCT application number PCT/CN2017/098299, incorporated herein by reference in its entirety) were employed to pan against human CTLA4 antigens. A total of 3-5 rounds of panning were conducted. After the final round of panning, single-colony supernatant ELISA was performed to identify the primary hits that specifically recognized human CTLA4 (see e.g., UniProt Accession Number P16410). The primary hits were defined as those whose ELISA signals were at least twice that of background. The hits were then sequenced, and the unique clones were expressed in E. coli and purified. Their affinities against human CTLA4 were measured by ForteBio Octet RED96 Systems. […] The acquired ForteBio data were processed with Data Acquisition software 7.1, and kinetic data were fitted to a 1:1 Langmuir binding model.

[2] = target: mouse CTLA4 fused with human FC fragment (mouse, UniProt P09793 36-162, limits assumed); assay: ELISA, captured Fab, CTLA4-Fc titrated
[3] = target: T1, recombinant human CTLA4-Fc; assay: ELISA; EC50 divided by the EC50 of TY21580
Protocol: (§1) Plates were blocked with PBS supplemented with 3% non-fat milk at 37° C. for 1 hour. After washing, 100 μL of 3-fold serial dilutions of antibodies were added to each well. After incubation at 37° C. for 1 hour, plates were washed four times, and 100 μL HRP conjugated anti-human IgG (Fab specific) (1:6000 dilution) was added to each well. Plates were incubated at 37° C. for 1 hour, washed four times, and then 50 μL TMB substrate solution was added to each well, and the plate was incubated at room temperature. […] The EC₅₀ was evaluated by fitting the ELISA data using the asymmetrical sigmoidal (five-parameter logistic equation) model of GraphPad Prism 6 software.

[4] = target: T1, recombinant human CTLA4-Fc; assay: ELISA; EC50 divided by the EC50 of TY21580; remark: listed apart in the source
Protocol: as §1

[5] = target: T1, recombinant human CTLA4-Fc; assay: ELISA; EC50 divided by the EC50 of TY21580; remark: listed apart in the source
Protocol: as §1

[6] = target: T1, recombinant human CTLA4-Fc; assay: ELISA, coated human CTLA4-Fc (as in Example 8)
Protocol: as §1

[7] = target: T1, recombinant human CTLA4-Fc; assay: ELISA, coated human CTLA4-Fc; EC50 divided by the EC50 of TY21580
Protocol: as §1
(§2) The purified activatable antibodies were treated with the proteases which recognize the cleavage sequences, and were then tested to determine whether removal of the masking peptide restored their activity.

[8] = target: T1, recombinant human CTLA4-Fc; assay: ELISA, coated human CTLA4-Fc
Protocol: as §1, §2

[9] = target: T1, recombinant human CTLA4-Fc; assay: ELISA, coated human CTLA4-Fc (as in Example 8); remark: listed apart in the source
Protocol: as §1

[10] = target: T1, recombinant human CTLA4-Fc; assay: ELISA, coated human CTLA4-Fc (as in Example 8); remark: listed apart in the source
Protocol: as §1

| Kd [1] [nM] | koff [1] [s⁻¹] | kon [1] [M⁻¹ s⁻¹] | binding result [2] | masking efficiency [3] | masking efficiency [4] | masking efficiency [5] | EC50 [6] [nM] | masking efficiency [7] | EC50 [8] [nM] | LogEC50 [8] | EC50 [9] [nM] | EC50 [10] [nM] | Binder |
| --- | --- | --- | --- | --- | --- | --- | --- | --- | --- | --- | --- | --- | --- |
| 14.5 | 0.00258 | 178000 | no binding |  |  |  |  |  |  |  |  |  | B15740 (Fab, V domains shown, Fab from E. coli; also called Fab hit of TY21589) VH: EVQLVESGGGLVQPGGSLRLSCAASGFTFSDYWIHWVRQAPGKGLEWIGWISPSGGGTKYAQKFQGRVTISRDNSKNTLYLQLNSLRAEDTAVYYCARGAYEFDYWGQGTLVTVSS VL: DIQLTQSPSSLSASVGDRVTITCRASQSVSSRFLAWYQQKPGKAPKLLIYDASNRATGIPSRFSGSGSGTDFTLTISSLQPEDFATYYCQQSYPTPLTFGQGTKVEIKR |
|  |  |  |  | 308 | 469 | 572 | 68.4 | 216 | 96.8 | -7.01 | 122 | 117 | TY22404 (antibody, IgG1, V domains shown, IgG1; peptide fused to the N-terminus of the light chain of TY21580) VH: EVQLVESGGGLVQPGGSLRLSCAASGYSISSGYHWSWIRQAPGKGLEWLARIDWDDDKYYSTSLKSRLTISRDNSKNTLYLQLNSLRAEDTAVYYCARSYVYFDYWGQGTLVTVSS VL: EVGSYPNPSSDCVPYYYACAYSGRSAGGGGSPLGLAGSGGSDIQLTQSPSSLSASVGDRVTITCRASQSVRGRFLAWYQQKPGKAPKLLIYDASNRATGIPSRFSGSGSGTDFTLTISSLQPEDFATYYCQQSSSWPPTFGQGTKVEIKR |
